Source: paper PMC8319846 (Frontiers in Microbiology, 2021)

Tests used:
Hlb = Hlb (Staphylococcus aureus, strain , UniProt P09978); experiment: ELISA; conditions: both partners purified
HlgA = HlgA (Staphylococcus aureus, strain , UniProt P0A074); experiment: ELISA; conditions: both partners purified
HlgB = HlgB (Staphylococcus aureus, strain , UniProt P0A077); experiment: ELISA; conditions: both partners purified
HlgC = HlgC (Staphylococcus aureus, strain , UniProt Q07227); experiment: ELISA; conditions: both partners purified
Chain of HlgC (Q07227 30-315): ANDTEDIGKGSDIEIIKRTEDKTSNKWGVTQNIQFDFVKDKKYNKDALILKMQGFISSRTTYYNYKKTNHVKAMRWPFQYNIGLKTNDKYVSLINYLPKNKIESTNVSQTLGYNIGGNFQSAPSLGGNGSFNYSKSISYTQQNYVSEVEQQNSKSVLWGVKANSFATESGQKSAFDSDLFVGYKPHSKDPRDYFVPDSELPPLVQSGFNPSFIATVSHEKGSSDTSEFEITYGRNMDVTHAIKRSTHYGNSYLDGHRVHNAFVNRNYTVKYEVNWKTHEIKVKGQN

LukD = LukD (Staphylococcus aureus, strain , UniProt O54082); experiment: ELISA; conditions: both partners purified
Chain of LukD (O54082 27-327): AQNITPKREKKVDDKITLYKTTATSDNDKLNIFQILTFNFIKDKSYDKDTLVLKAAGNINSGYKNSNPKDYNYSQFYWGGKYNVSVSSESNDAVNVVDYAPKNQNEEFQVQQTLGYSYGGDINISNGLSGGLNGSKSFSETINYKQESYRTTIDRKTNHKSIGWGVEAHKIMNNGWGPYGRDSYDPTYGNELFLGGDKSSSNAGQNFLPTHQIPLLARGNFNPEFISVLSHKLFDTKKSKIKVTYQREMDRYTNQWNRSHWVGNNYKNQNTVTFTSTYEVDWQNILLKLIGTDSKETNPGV

LukE = LukE (Staphylococcus aureus, strain , UniProt O54081); experiment: ELISA; conditions: both partners purified
Chain of LukE (O54081 29-314): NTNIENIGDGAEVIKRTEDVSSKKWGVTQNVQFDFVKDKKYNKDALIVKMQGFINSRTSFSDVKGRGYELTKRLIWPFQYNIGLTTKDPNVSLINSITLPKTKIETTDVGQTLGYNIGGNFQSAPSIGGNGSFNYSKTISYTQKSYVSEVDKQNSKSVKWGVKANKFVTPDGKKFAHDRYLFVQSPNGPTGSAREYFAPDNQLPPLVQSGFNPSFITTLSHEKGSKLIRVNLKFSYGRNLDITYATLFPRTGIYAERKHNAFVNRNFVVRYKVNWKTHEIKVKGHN

LukF = LukF (Staphylococcus aureus, strain , UniProt Q5FBD2); experiment: ELISA; conditions: both partners purified
Chain of LukF (P31715 26-323): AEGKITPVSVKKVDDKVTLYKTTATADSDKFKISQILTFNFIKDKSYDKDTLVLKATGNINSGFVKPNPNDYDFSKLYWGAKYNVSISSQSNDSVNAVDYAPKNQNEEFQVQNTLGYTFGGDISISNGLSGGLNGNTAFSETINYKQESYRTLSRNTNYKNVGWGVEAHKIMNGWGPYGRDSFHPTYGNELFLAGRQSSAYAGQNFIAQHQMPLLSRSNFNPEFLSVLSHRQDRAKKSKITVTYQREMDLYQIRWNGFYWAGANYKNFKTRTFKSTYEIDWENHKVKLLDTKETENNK

[1] = molecular target: native Hla in S. aureus 8325-4 supernatants (Staphylococcus aureus 8325-4 (NCTC 8325 …, UniProt Q2G1X0)); experiment: far-Western, overlay or dot blot; conditions: one partner purified
Chain of native Hla in S. aureus 8325-4 supernatants (Staphylococcus aureus 8325-4 (Q2G1X0 27-319): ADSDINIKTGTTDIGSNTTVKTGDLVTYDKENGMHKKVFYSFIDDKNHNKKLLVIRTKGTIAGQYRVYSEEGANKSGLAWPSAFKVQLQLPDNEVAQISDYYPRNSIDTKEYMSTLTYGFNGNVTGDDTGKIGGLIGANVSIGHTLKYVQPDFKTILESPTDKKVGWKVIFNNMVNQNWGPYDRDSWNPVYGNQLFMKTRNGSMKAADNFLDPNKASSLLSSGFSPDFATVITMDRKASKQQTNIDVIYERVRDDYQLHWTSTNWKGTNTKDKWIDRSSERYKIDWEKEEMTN

Chain of Hlb (P09978 35-330): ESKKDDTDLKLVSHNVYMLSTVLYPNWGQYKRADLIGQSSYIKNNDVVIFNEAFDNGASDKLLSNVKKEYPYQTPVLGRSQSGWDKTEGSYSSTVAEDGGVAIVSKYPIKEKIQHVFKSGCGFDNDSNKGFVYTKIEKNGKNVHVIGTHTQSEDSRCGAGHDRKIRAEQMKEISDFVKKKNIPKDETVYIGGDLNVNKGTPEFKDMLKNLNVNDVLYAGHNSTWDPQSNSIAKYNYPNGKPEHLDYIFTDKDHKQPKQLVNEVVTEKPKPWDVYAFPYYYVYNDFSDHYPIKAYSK
Chain of HlgA (P0A074 30-309): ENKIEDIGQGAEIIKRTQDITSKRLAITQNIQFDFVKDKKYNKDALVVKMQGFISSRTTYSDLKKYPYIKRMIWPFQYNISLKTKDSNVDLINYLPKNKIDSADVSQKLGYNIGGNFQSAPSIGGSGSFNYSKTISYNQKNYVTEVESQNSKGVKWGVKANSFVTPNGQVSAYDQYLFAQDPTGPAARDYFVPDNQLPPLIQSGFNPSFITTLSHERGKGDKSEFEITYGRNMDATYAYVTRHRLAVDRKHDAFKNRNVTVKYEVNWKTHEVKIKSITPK
Chain of HlgB (P0A077 26-325): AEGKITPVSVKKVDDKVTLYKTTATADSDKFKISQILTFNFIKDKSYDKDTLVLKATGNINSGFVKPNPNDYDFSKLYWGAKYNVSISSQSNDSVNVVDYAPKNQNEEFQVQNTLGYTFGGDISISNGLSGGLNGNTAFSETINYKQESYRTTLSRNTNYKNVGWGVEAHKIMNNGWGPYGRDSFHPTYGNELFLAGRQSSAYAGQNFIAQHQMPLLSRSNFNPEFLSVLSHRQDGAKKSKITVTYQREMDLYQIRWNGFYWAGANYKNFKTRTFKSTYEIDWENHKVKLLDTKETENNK

B1: YG1 human anti-Hla monoclonal antibody (antibody, V domains shown)
VH: QVQLVQSGAEMQKPGASVKVSCKVTGYALASLSLHWVRQTPGAGLEWLGGLDPGHGETIYAEKLQGRVVMTGDTSTDTAYMQLSSLTSEDTAIYYCASDWLRHGFEFWGQGTTVTVSS
VL: EIVLTQSPATLSVSPGDGATLSCRASQSVSGNLAWYQKKPGQAPRLLIYDTSIRAAGVPPRFSGSGSGTEFTLTISSLQSEDFAVYYCQQYHNLPPLTFGPGTKLEIK
notes: also called YG1 mAb; source: expressed and purified as a full-length human IgG1 antibody
B1: no binding (tested: 1 μg/ml) (Hlb); no binding (tested: 1 μg/ml) (HlgA); no binding (tested: 1 μg/ml) (HlgB). B1: no binding (tested: 1 μg/ml) (HlgC); no binding (tested: 1 μg/ml) (LukD); no binding (tested: 1 μg/ml) (LukE). B1: no binding (tested: 1 μg/ml) (LukF); binds [1].
